Key:
[1] = target: T1, Human IL-2Rα/β/γ complex (high affinity IL-2 receptor) (human, UniProt P01589 22-272; P14784 27-551; P31785 23-369); test: cell-based or functional assay
T1 sequence (looked up) 1: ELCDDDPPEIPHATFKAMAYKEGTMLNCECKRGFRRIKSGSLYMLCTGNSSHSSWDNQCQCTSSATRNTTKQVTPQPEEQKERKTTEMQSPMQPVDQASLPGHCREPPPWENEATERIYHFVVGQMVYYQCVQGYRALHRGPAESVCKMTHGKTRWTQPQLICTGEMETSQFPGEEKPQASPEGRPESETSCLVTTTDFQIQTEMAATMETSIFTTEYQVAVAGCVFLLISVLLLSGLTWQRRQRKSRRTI
T1 sequence (looked up) 2: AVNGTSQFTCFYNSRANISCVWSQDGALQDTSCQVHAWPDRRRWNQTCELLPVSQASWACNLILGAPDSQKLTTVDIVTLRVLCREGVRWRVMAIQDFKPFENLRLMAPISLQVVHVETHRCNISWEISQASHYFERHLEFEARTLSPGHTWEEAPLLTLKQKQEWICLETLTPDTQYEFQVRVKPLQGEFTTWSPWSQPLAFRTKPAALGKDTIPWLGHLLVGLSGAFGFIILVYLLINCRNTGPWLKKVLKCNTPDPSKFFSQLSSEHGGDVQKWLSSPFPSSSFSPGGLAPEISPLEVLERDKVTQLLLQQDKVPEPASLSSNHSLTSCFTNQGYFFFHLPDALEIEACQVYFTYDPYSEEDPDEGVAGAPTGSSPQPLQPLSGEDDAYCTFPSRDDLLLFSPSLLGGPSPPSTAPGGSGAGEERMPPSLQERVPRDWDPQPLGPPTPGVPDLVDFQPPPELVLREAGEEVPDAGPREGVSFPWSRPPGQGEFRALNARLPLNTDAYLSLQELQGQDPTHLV
T1 sequence (looked up) 3: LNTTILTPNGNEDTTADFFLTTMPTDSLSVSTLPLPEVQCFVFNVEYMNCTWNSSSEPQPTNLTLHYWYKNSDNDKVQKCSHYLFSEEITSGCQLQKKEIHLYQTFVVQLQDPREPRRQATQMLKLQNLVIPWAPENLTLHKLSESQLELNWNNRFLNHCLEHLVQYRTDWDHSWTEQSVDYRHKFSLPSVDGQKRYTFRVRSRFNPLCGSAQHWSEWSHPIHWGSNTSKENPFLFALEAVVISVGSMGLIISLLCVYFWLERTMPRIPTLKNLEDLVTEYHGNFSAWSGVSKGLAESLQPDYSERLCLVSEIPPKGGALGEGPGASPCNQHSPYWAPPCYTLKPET

[2] = target: T2, Human IL-2Rβ/γ (intermediate affinity IL-2 receptor) (human, UniProt P14784 27-551; P31785 23-369); test: cell-based or functional assay
T2 sequence (looked up) 1: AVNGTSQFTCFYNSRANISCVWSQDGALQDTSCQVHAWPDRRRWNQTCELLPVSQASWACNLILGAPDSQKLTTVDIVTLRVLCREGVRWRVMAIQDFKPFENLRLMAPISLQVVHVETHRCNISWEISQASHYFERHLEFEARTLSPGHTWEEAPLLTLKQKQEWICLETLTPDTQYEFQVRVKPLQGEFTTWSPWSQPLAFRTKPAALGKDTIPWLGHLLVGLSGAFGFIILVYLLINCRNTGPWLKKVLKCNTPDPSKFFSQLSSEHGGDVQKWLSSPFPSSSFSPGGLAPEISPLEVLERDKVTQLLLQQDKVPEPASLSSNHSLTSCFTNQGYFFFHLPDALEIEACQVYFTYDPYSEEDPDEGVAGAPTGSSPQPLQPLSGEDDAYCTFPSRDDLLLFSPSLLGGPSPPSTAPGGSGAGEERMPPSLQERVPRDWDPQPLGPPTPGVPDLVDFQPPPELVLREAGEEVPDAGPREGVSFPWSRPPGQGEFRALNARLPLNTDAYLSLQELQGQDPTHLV
T2 sequence (looked up) 2: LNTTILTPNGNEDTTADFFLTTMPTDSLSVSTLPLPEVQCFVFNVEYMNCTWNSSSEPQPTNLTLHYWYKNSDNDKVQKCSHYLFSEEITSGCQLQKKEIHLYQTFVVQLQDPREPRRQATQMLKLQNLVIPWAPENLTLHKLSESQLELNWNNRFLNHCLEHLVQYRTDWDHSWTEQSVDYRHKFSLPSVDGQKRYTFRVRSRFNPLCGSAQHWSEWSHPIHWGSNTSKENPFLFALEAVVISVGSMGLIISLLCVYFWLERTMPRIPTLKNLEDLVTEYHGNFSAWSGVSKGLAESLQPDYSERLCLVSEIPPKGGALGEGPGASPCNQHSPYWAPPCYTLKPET

[3] = target: T1, Human IL-2Rα/β/γ complex (high affinity …); test: FACS, MJ20 cells; EC50 fold vs T2U0.E44-1
Protocol: (§1) Human cutaneous T cell lymphoma HH cells, malignant non-Hodgkin's lymphoma NK92 cells and cutaneous T cell lymphoma MJ20 cells were used for binding assay. They both constitutively express IL-2Rβ (CD122) and […] (CD132), and NK92 and MJ20 also expresses IL-2Rα (CD25). HH, NK92 and MJ20 cells were cultured following ATCC guidance, then transferred to a 96-plate for binding analysis. Cells were incubated with IL-2/Fc fusion proteins at the indicated concentrations for 30 min at 4° C. to avoid internalization. Binding was detected by 2nd antibody of PE-anti-human Fc at 4° C. for another 30 min. The median fluorescence intensity (MFI) on HH and NK92 cells was measured using FACS.

[4] = target: T1, Human IL-2Rα/β/γ complex (high affinity …); test: FACS, MJ20 cells
Protocol: as §1

[5] = target: T2, Human IL-2Rβ/γ (intermediate affinity …); test: FACS, HH cells; EC50 fold vs T2U0.E44-1
Protocol: as §1

[6] = target: T2, Human IL-2Rβ/γ (intermediate affinity …); test: FACS, HH cells
Protocol: as §1

Binder | Potency in human Treg EC50 [1] | Potency reduction (Treg) [1] | Potency in human CD8+ T EC50 [2] | Potency reduction (CD8+ T) [2] | Affinity reduction [3] | EC50 [4] | Affinity reduction [5] | EC50 [6]
W3XX115-T2U0.E44-34.uIgG4V322 (Fc fusion, IL-2 del STLT and S127A; E44 format, IgG4 FALA) APTSSSTKKTQLQLEHLLLDLQMILNGINNYKNPKLTRMLTFKFYMPKKATELKHLQCLEEELKPLEEVLNLAQSKNFHLRPRDLISNINVIVLELKGSETTFMCEYADETATIVEFLNRWITFCQAIIESKYGPPCPPCPAPEAAGGPSVFLFPPKPKDTLMISRTPEVTCVVVDVSQEDPEVQFNWYVDGVEVHNAKTKPREEQFNSTYRVVSVLTVLHQDWLNGKEYKCKVSNKGLPSSIEKTISKAKGQPREPQVYTLPPCQEEMTKNQVSLWCLVKGFYPSDIAVEWESNGQPENNYKTTPPVLDSDGSFFLYSRLTVDKSRWQEGNVFSCSVMHEALHNHYTQKSLSLSLG heavy: EIQLQQSGPELVKPGASVKVSCKASGYSFTDYNMYWVKQSHGESLEWIGYIDPYNGGTRYNQKFKGKATLTVDKSSSTAFMHLNSLTSEDSAVYYCARNGHWDGAWFAYWGQGTLVTVSAASTKGPSVFPLAPCSRSTSESTAALGCLVKDYFPEPVTVSWNSGALTSGVHTFPAVLQSSGLYSLSSVVTVPSSSLGTKTYTCNVDHKPSNTKVDKRVESKYGPPCPPCPAPEAAGGPSVFLFPPKPKDTLMISRTPEVTCVVVDVSQEDPEVQFNWYVDGVEVHNAKTKPREEQFNSTYRVVSVLTVLHQDWLNGKEYKCKVSNKGLPSSIEKTISKAKGQPREPQVCTLPPSQEEMTKNQVSLSCAVKGFYPSDIAVEWESNGQPENNYKTTPPVLDSDGSFFLVSRLTVDKSRWQEGNVFSCSVMHEALHNHYTQKSLSLSLG light: DIQMNQSPSSLSASLGDTITITCHASQNINVWLSWYQQKPGNIPKLLIYKASNLHTGVPSRFSGSRSGTGFTLTISSLQPEDIATYYCHQGQSYPFTFGSGTKLEIKRTVAAPSVFIFPPSDEQLKSGTASVVCLLNNFYPREAKVQWKVDNALQSGNSQESVTEQDSKDSTYSLSSTLTLSKADYEKHKVYACEVTHQGLSSPVTKSFNRGEC | 0.21 nM | 104 fold | 180 nM | 17.7 fold | 1.5 fold | 60.9 nM | 13.7 fold | 720 nM
W3XX115-T2U0.E44-38.uIgG4V322 (Fc fusion, IL-2 del STLT and C125A; E44 format, IgG4 FALA) APTSSSTKKTQLQLEHLLLDLQMILNGINNYKNPKLTRMLTFKFYMPKKATELKHLQCLEEELKPLEEVLNLAQSKNFHLRPRDLISNINVIVLELKGSETTFMCEYADETATIVEFLNRWITFAQSIIESKYGPPCPPCPAPEAAGGPSVFLFPPKPKDTLMISRTPEVTCVVVDVSQEDPEVQFNWYVDGVEVHNAKTKPREEQFNSTYRVVSVLTVLHQDWLNGKEYKCKVSNKGLPSSIEKTISKAKGQPREPQVYTLPPCQEEMTKNQVSLWCLVKGFYPSDIAVEWESNGQPENNYKTTPPVLDSDGSFFLYSRLTVDKSRWQEGNVFSCSVMHEALHNHYTQKSLSLSLG heavy: EIQLQQSGPELVKPGASVKVSCKASGYSFTDYNMYWVKQSHGESLEWIGYIDPYNGGTRYNQKFKGKATLTVDKSSSTAFMHLNSLTSEDSAVYYCARNGHWDGAWFAYWGQGTLVTVSAASTKGPSVFPLAPCSRSTSESTAALGCLVKDYFPEPVTVSWNSGALTSGVHTFPAVLQSSGLYSLSSVVTVPSSSLGTKTYTCNVDHKPSNTKVDKRVESKYGPPCPPCPAPEAAGGPSVFLFPPKPKDTLMISRTPEVTCVVVDVSQEDPEVQFNWYVDGVEVHNAKTKPREEQFNSTYRVVSVLTVLHQDWLNGKEYKCKVSNKGLPSSIEKTISKAKGQPREPQVCTLPPSQEEMTKNQVSLSCAVKGFYPSDIAVEWESNGQPENNYKTTPPVLDSDGSFFLVSRLTVDKSRWQEGNVFSCSVMHEALHNHYTQKSLSLSLG light: DIQMNQSPSSLSASLGDTITITCHASQNINVWLSWYQQKPGNIPKLLIYKASNLHTGVPSRFSGSRSGTGFTLTISSLQPEDIATYYCHQGQSYPFTFGSGTKLEIKRTVAAPSVFIFPPSDEQLKSGTASVVCLLNNFYPREAKVQWKVDNALQSGNSQESVTEQDSKDSTYSLSSTLTLSKADYEKHKVYACEVTHQGLSSPVTKSFNRGEC | 5 nM | 2540 fold | 268 nM | 26.3 fold | 4.8 fold | 201 nM | 400000 fold | 
W3XX115-T2U0.E44-35.uIgG4V322 (Fc fusion, IL-2 del STLT and S127T; E44 format, IgG4 FALA) APTSSSTKKTQLQLEHLLLDLQMILNGINNYKNPKLTRMLTFKFYMPKKATELKHLQCLEEELKPLEEVLNLAQSKNFHLRPRDLISNINVIVLELKGSETTFMCEYADETATIVEFLNRWITFCQTIIESKYGPPCPPCPAPEAAGGPSVFLFPPKPKDTLMISRTPEVTCVVVDVSQEDPEVQFNWYVDGVEVHNAKTKPREEQFNSTYRVVSVLTVLHQDWLNGKEYKCKVSNKGLPSSIEKTISKAKGQPREPQVYTLPPCQEEMTKNQVSLWCLVKGFYPSDIAVEWESNGQPENNYKTTPPVLDSDGSFFLYSRLTVDKSRWQEGNVFSCSVMHEALHNHYTQKSLSLSLG heavy: EIQLQQSGPELVKPGASVKVSCKASGYSFTDYNMYWVKQSHGESLEWIGYIDPYNGGTRYNQKFKGKATLTVDKSSSTAFMHLNSLTSEDSAVYYCARNGHWDGAWFAYWGQGTLVTVSAASTKGPSVFPLAPCSRSTSESTAALGCLVKDYFPEPVTVSWNSGALTSGVHTFPAVLQSSGLYSLSSVVTVPSSSLGTKTYTCNVDHKPSNTKVDKRVESKYGPPCPPCPAPEAAGGPSVFLFPPKPKDTLMISRTPEVTCVVVDVSQEDPEVQFNWYVDGVEVHNAKTKPREEQFNSTYRVVSVLTVLHQDWLNGKEYKCKVSNKGLPSSIEKTISKAKGQPREPQVCTLPPSQEEMTKNQVSLSCAVKGFYPSDIAVEWESNGQPENNYKTTPPVLDSDGSFFLVSRLTVDKSRWQEGNVFSCSVMHEALHNHYTQKSLSLSLG light: DIQMNQSPSSLSASLGDTITITCHASQNINVWLSWYQQKPGNIPKLLIYKASNLHTGVPSRFSGSRSGTGFTLTISSLQPEDIATYYCHQGQSYPFTFGSGTKLEIKRTVAAPSVFIFPPSDEQLKSGTASVVCLLNNFYPREAKVQWKVDNALQSGNSQESVTEQDSKDSTYSLSSTLTLSKADYEKHKVYACEVTHQGLSSPVTKSFNRGEC | 0.073 nM | 37.1 fold | 10.7 nM | 1.1 fold | 2.2 fold | 92.8 nM | 10.9 fold | 576 nM
